Experimental data as given in IntAct's records for PubMed 29039417.

B1: BBSome-interacting protein 1 (Homo sapiens), A8MTZ0 (parent)
chain: MLKAAAKRPELSGKNTISNNSDMAEVKSMFREVLPKQGPLFVEDIMTMVLCKPKLLPLKSLTLEKLEKMHQAAQNTIRQQEMAEKDQRQITH
partner: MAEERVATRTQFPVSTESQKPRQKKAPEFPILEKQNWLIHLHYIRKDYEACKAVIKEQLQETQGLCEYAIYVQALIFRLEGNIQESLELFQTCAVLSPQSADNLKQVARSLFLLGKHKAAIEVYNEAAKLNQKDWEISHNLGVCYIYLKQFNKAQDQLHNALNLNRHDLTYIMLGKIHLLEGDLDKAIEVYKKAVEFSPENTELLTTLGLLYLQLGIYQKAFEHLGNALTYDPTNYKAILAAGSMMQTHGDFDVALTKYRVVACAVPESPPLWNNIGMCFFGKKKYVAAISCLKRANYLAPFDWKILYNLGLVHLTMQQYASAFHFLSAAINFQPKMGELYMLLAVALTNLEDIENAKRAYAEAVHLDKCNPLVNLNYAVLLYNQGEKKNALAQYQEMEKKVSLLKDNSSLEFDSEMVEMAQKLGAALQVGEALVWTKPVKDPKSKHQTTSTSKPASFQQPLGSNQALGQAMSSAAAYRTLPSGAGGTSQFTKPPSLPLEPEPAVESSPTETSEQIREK

Variants of: B1
Details: with bbs4_human BBS4, Q96RK4
In the case of MLKAAAERPELSGKNTISNNSDMAEVKSMFREVLPKQGPLFVEDIMTMVLCKPKLLPLKSLTLEKLEKMHQAAQNTIRQQEMAEKDQRQITH, the “effect of a mutation on the interaction” value is reported as “with no effect”.
In the case of MLKAAAARPELSGKNTISNNSDMAEVKSMFREVLPKQGPLFVEDIMTMVLCKPKLLPLKSLTLEKLEKMHQAAQNTIRQQEMAEKDQRQITH, the “effect of a mutation on the interaction” value is reported as “with no effect”.
With MLKAAAKKPELSGKNTISNNSDMAEVKSMFREVLPKQGPLFVEDIMTMVLCKPKLLPLKSLTLEKLEKMHQAAQNTIRQQEMAEKDQRQITH the “effect of a mutation on the interaction” value was “with no effect”.
MLKAAAKEPELSGKNTISNNSDMAEVKSMFREVLPKQGPLFVEDIMTMVLCKPKLLPLKSLTLEKLEKMHQAAQNTIRQQEMAEKDQRQITH was tested, and the “effect of a mutation on the interaction” value was “with no effect”.
With MLKAAAKAPELSGKNTISNNSDMAEVKSMFREVLPKQGPLFVEDIMTMVLCKPKLLPLKSLTLEKLEKMHQAAQNTIRQQEMAEKDQRQITH the “effect of a mutation on the interaction” value was “with no effect”.
With MLKAEAKRPELSGKNTISNNSDMAEVKSMFREVLPKQGPLFVEDIMTMVLCKPKLLPLKSLTLEKLEKMHQAAQNTIRQQEMAEKDQRQITH the “effect of a mutation on the interaction” value was “with no effect”.
With MLKAKAKRPELSGKNTISNNSDMAEVKSMFREVLPKQGPLFVEDIMTMVLCKPKLLPLKSLTLEKLEKMHQAAQNTIRQQEMAEKDQRQITH the “effect of a mutation on the interaction” value was “with no effect”.
In the case of ELKAAAKRPELSGKNTISNNSDMAEVKSMFREVLPKQGPLFVEDIMTMVLCKPKLLPLKSLTLEKLEKMHQAAQNTIRQQEMAEKDQRQITH, the “effect of a mutation on the interaction” value is reported as “with no effect”.
With ALKAAAKRPELSGKNTISNNSDMAEVKSMFREVLPKQGPLFVEDIMTMVLCKPKLLPLKSLTLEKLEKMHQAAQNTIRQQEMAEKDQRQITH the “effect of a mutation on the interaction” value was “with no effect”.
For KLKAAAKRPELSGKNTISNNSDMAEVKSMFREVLPKQGPLFVEDIMTMVLCKPKLLPLKSLTLEKLEKMHQAAQNTIRQQEMAEKDQRQITH, the “effect of a mutation on the interaction” value was “with no effect”.
With MLKAAKKRPELSGKNTISNNSDMAEVKSMFREVLPKQGPLFVEDIMTMVLCKPKLLPLKSLTLEKLEKMHQAAQNTIRQQEMAEKDQRQITH the “effect of a mutation on the interaction” value was “with no effect”.
In the case of MLKAAEKRPELSGKNTISNNSDMAEVKSMFREVLPKQGPLFVEDIMTMVLCKPKLLPLKSLTLEKLEKMHQAAQNTIRQQEMAEKDQRQITH, the “effect of a mutation on the interaction” value is reported as “with no effect”.
In the case of MLKAAAKREELSGKNTISNNSDMAEVKSMFREVLPKQGPLFVEDIMTMVLCKPKLLPLKSLTLEKLEKMHQAAQNTIRQQEMAEKDQRQITH, the “effect of a mutation on the interaction” value is reported as “with no effect”.
MLKAAAKRKELSGKNTISNNSDMAEVKSMFREVLPKQGPLFVEDIMTMVLCKPKLLPLKSLTLEKLEKMHQAAQNTIRQQEMAEKDQRQITH was tested, and the “effect of a mutation on the interaction” value was “with no effect”.
MLKAAAKRAELSGKNTISNNSDMAEVKSMFREVLPKQGPLFVEDIMTMVLCKPKLLPLKSLTLEKLEKMHQAAQNTIRQQEMAEKDQRQITH was tested, and the “effect of a mutation on the interaction” value was “with no effect”.
With MLKAAAKRPEKSGKNTISNNSDMAEVKSMFREVLPKQGPLFVEDIMTMVLCKPKLLPLKSLTLEKLEKMHQAAQNTIRQQEMAEKDQRQITH the “effect of a mutation on the interaction” value was “with no effect”.
With MLKAAAKRPEASGKNTISNNSDMAEVKSMFREVLPKQGPLFVEDIMTMVLCKPKLLPLKSLTLEKLEKMHQAAQNTIRQQEMAEKDQRQITH the “effect of a mutation on the interaction” value was “with no effect”.
For MLKAAAKRPEESGKNTISNNSDMAEVKSMFREVLPKQGPLFVEDIMTMVLCKPKLLPLKSLTLEKLEKMHQAAQNTIRQQEMAEKDQRQITH, the “effect of a mutation on the interaction” value was “with no effect”.
MAKAAAKRPELSGKNTISNNSDMAEVKSMFREVLPKQGPLFVEDIMTMVLCKPKLLPLKSLTLEKLEKMHQAAQNTIRQQEMAEKDQRQITH was tested, and the “effect of a mutation on the interaction” value was “with no effect”.
For MKKAAAKRPELSGKNTISNNSDMAEVKSMFREVLPKQGPLFVEDIMTMVLCKPKLLPLKSLTLEKLEKMHQAAQNTIRQQEMAEKDQRQITH, the “effect of a mutation on the interaction” value was “with no effect”.
For MEKAAAKRPELSGKNTISNNSDMAEVKSMFREVLPKQGPLFVEDIMTMVLCKPKLLPLKSLTLEKLEKMHQAAQNTIRQQEMAEKDQRQITH, the “effect of a mutation on the interaction” value was “with no effect”.
MLKEAAKRPELSGKNTISNNSDMAEVKSMFREVLPKQGPLFVEDIMTMVLCKPKLLPLKSLTLEKLEKMHQAAQNTIRQQEMAEKDQRQITH was tested, and the “effect of a mutation on the interaction” value was “with no effect”.
MLKKAAKRPELSGKNTISNNSDMAEVKSMFREVLPKQGPLFVEDIMTMVLCKPKLLPLKSLTLEKLEKMHQAAQNTIRQQEMAEKDQRQITH was tested, and the “effect of a mutation on the interaction” value was “with no effect”.
For MLKAAAKRPALSGKNTISNNSDMAEVKSMFREVLPKQGPLFVEDIMTMVLCKPKLLPLKSLTLEKLEKMHQAAQNTIRQQEMAEKDQRQITH, the “effect of a mutation on the interaction” value was “with no effect”.
In the case of MLKAAAKRPKLSGKNTISNNSDMAEVKSMFREVLPKQGPLFVEDIMTMVLCKPKLLPLKSLTLEKLEKMHQAAQNTIRQQEMAEKDQRQITH, the “effect of a mutation on the interaction” value is reported as “with no effect”.
With MLEAAAKRPELSGKNTISNNSDMAEVKSMFREVLPKQGPLFVEDIMTMVLCKPKLLPLKSLTLEKLEKMHQAAQNTIRQQEMAEKDQRQITH the “effect of a mutation on the interaction” value was “with no effect”.
With MLAAAAKRPELSGKNTISNNSDMAEVKSMFREVLPKQGPLFVEDIMTMVLCKPKLLPLKSLTLEKLEKMHQAAQNTIRQQEMAEKDQRQITH the “effect of a mutation on the interaction” value was “with no effect”.
